Test results as given in publication PMC11985770, “The SlERF4-9-SlCDF1/3-SlAEC2/SlPIN5 module regulates tomato root morphogenesis”.

Target: SlERF4-9-GST (Solanum lycopersicum (tomato), UniProt A0A3Q7G811 1-264)
Test: EMSA; Beyotime Chemiluminescent EMSA Kit; 100x cold probe as competitor; buffer, salt, pH and temperature not stated
Conditions: protein: recombinant; tags: GST (pGEX6P-1); label: biotin on both strands (3' end); blunt

Chain of SlERF4-9-GST (A0A3Q7G811 entry or part of it): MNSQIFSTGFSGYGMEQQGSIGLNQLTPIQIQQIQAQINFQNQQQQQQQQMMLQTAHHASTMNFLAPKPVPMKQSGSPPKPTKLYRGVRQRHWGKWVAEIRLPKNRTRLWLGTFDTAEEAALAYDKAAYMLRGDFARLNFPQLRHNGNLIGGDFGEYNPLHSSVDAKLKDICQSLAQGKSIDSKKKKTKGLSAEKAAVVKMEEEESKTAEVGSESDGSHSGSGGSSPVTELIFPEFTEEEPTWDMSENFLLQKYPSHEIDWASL

B1: proCDF1 probe (P1 site) (dsDNA)
DNA 1: ACGACGTTGGCCGGCGGCGGCGAATTCACGGCGGCTAAACGAGTTTT
DNA 2: AAAACTCGTTTAGCCGCCGTGAATTCGCCGCCGCCGGCCAACGTCGT
  binding result: binds

B2: proCDF3 probe (P2 site) (dsDNA)
DNA 1: CGTCAACTCGCCGGCGGCGACTTCGTCGGA
DNA 2: TCCGACGAAGTCGCCGCCGGCGAGTTGACG
  binding result: binds
